Experiment: soluble on expression in E. coli; label from the status in PepcDB or PDB records

Sequence	soluble on expression in E. coli
MDQQEPSNNVDTSSILSDDGMETQEQSSFVTATIDLTVDDYDETEIQEILDNGKAEEGTDEDSDLVEGILNANSDVQALLDAPSEQVAQALNSFFGNESEQEAVAAQRRVDAEKTAKDEAELKQQEEAEDLIIEDSIVKTDEEKQAVRRLKINEFLSWFTRLLPEQFKNFEFTNPNYLTESISDSPVVNVDKCKEIVKSFKESESLEGLSQKYELIDEDVLVAAICIGVLDTNNEEDVDFNVLCDDRIDDWSIEKCVTFLDYPNTGLNSKNGPLRFMQFTVTSPASAILMLTLIRLREEGHPCRLDFDSNPTDDLLLNFDQVEFSNNIIDTAVKYWDDQKENGAQDKIGRRVLIKLTTVLKNAVGSRNEIIQLVNEKIPDFDGTEAAVNESFTSDQRTEIINSRAIMETLKAEMKLAIAEAQKVYDTKTDFEKFFVLTVGDFCLARANPSDDAELTYAIVQDRVDAMTYKVKFIDTSQIRECNIRDLAMTTQGMYDPSLNTFGDVGLRVACRQVISSSQFGKKTIWLTGTAAGRRRAHRSDFLIFFDNGTDAYVSAPTMPGEPGYEVASEKKSVFSLKEMIAKMNAAQIAIMVGQPVGKEGNLDYFLTFHWIRQSHRSAYIRDFMKEFPEWPLLKMPVGMRICLYNSLVDRRKKMVTVIGTDRAFAIVRHEAPNPLAPGNRCTDFPCNDRNHQHIDEKIYRGSHRLEGAAHKKHMISTNNNLSQRRKDQLQSQFEPTDMIRSMPERNHQQVVKKKTTGTNQNVASTNDAKSKREIEIRKKNQFLFNKIIVPIPVLTPLENLKAHAQCGPDCLQKMDADPYEARFHRNSPIHTPLLCGWRRIMYTMSTGKKRGAVKKNIIYFSPCGAALHQISDVSEYIHVTRSLLTIDCFSFDARIDTATYITVDDKYLKVADFSLGTEGIPIPLVNSVDNDEPPSLEYSKRRFQYNDQVDISSVSRDFCSGCSCDGDCSDASKCECQQLSIEAMKRLPHNLQFDGHDELYESSEKQNKFLKLFFFRVPHYQNRLLSSKVISGLYECNDQCSCHRKSCYNRVVQNNIKYPMHVSLFNDDTYQLLFFLQIFKTAQSGWGVRALTDIPQSTFICTYVGAILTDDLADELRNADQYFADLDLKDTVELEKGREDHETDFGYGGDESDYDDEEGSDGDSGDDVMNKMVKRQDSSESGEETKRLTRQKRKQSKKSGKGGSVEKDDTTPRDSMEKDNIESKDEPVFNWDKYFEPFPLYVIDAKQRGNLGRFLNHSCDPNVHVQHVMYDTHDLRLPWVAFFTRKYVKAGDELTWDYQYTQDQTATTQLTCHCGAENCTGRLLKS	not soluble
MKLYNLKDHNEQVSFAQAVTQGLGKNQGLFFPHDLPEFSLTEIDEMLKLDFVTRSAKILSAFIGDEIPQEILEERVRAAFAFPAPVANVESDVGCLELFHGPTLAFKDFGGRFMAQMLTHIAGDKPVTILTATSGDTGAAVAHAFYGLPNVKVVILYPRGKISPLQEKLFCTLGGNIETVAIDGDFDACQALVKQAFDDEELKVALGLNSANSINISRLLAQICYYFEAVAQLPQETRNQLVVSVPSGNFGDLTAGLLAKSLGLPVKRFIAATNVNDTVPRFLHDGQWSPKATQATLSNAMDVSQPNNWPRVEELFRRKIWQLKELGYAAVDDETTQQTMRELKELGYTSEPHAAVAYRALRDQLNPGEYGLFLGTAHPAKFKESVEAILGETLDLPKELAERADLPLLSHNLPADFAALRKLMMNHQ	soluble
MSLQKELARNQHLAERLLETEESVRRDVARELHDDIGQTITAIRTQAGIVQRLAADNASVKQSGQLIEQLSLGVYDAVRRLLGRLRPRQLDDLTLEQAIRSLMREMELEGRGIVSHLEWRIEESALSENQRVTLFRVCQEGLNNIVKHADASAVTLQGWLQDERLMLVIEDDGSGLPPGSGQQGFGLTGMRERVTALGGTLTISCLHGTRVSVSLPQRYVEGHHHHHH	soluble
MTVPPTATHQPWPGVIAAYRDRLPVGDDWTPVTLLEGGTPLIAATNLSKQTGCTIHLKVEGLNPTGSFKDRGMTMAVTDALAHGQRAVLCASTGNTSASAAAYAARAGITCAVLIPQGKIAMGKLAQAVMHGAKIIQIDGNFDDCLELARKMAADFPTISLVNSVNPVRIEGQKTAAFEIVDVLGTAPDVHALPVGNAGNITAYWKGYTEYHQLGLIDKLPRMLGTQAAGAAPLVLGEPVSHPETIATAIRIGSPASWTSAVEAQQQSKGRFLAASDEEILAAYHLVARVEGVFVEPASAASIAGLLKAIDDGWVARGSTVVCTVTGNGLKDPDTALKDMPSVSPVPVDPVAVVEKLGLA	soluble
MTAILLHNVAKSYRSYDHPWETLWEVFTKTRRHREWTALHPLSLEIAHGEVVGIVGTNGAGKSTLLKLIAGTLTPSAGDIRVNGHVAALLELGAGFHPDMTGRENVYLGASVMGLSSERVDRLYDGIVEFAGLGEFMDQPVKTYSSGMYMRLAFAVATAADPDVLILDEALSVGDGAFARKSFERIIGYKDAGKTILFCSHSLYQVEAICSRVLWLDHGRLVMDGEPARVVSAYAEFLGGGGEGCGTPDQPAPAAVAGSGVGRLTKVEVEADGVEGRKLTVRSGQTDLTVAVGFASDPALPPPSVGLTITGSNGWAVTSASTSNDGLTISRRPDGSGEVELSFPRFPLLKGAYWVNVFLLCEQGIHLYDRIEHAAELEVVQDGLEQGVVSLPRRWSVNGAPASAVSPTVPTVAAWLEHHHHHH	not soluble
HHMSAIKPDMKINLRMEGNVNGHHFVIDGDGTGKPFEGKQSMDLEVKEGGPLPFAFDILTTAFHYGNRVFAEYPDHIQDYFKQSFPKGYSWERSLTFEDGGICIARNDITMEGDTFYNKVRFHGVNFPANGPVMQKKTLKWEPSTEKMYVRDGVLTGDITMALLLEGNAHYRCDSRTTYKAKEKGVKLPGYHLVDHCIEILSHDKDYNKVKLYEHAVAHSGLPDNARR	soluble
MSLSSAYDRKNLEKKNRELRELNDKIGDVAKTFETLQLELYNDLIKEFSKDLTSWNATIDPDNTIRFKEPDVLFDSGKSQVKERFKVVLDDFFPRYVKILSQEKYKGDIEEIRIEGHTSSEWLNAKTLEERYLGNAALSQARAFEVLKYCFALERIKGEQDWLIKVLRANGLSFAKPLDSEEHSRRVEFRTLTRSHQKMLKILDLSKEGHHHHHH	soluble
MAQGEKITVSNGVLNVPNNPIIPFIEGDGTGPDIWNAASKVLEAAVEKAYKGEKKITWKEVYAGEKAYNKTGEWLPAETLDVIREYFIAIKGPLTTPVGGGIRSLNVALRQELDLFVCLRPVRYFTGVPSPVKRPEDTDMVIFRENTEDIYAGIEYAKGSEEVQKLISFLQNELNVNKIRFPETSGIGIKPVSEEGTSRLVRAAIDYAIEHGRKSVTLVHKGNIMKFTEGAFKNWGYELAEKEYGDKVFTWAQYDRIAEEQGKDAANKAQSEAEAAGKIIIKDSIADIFLQQILTRPNEFDVVATMNLNGDYISDALAAQVGGIGIAPGANINYETGHAIFEATHGTAPKYAGLDKVNPSSVILSGVLLLEHLGWNEAADLVIKSMEKTIASKVVTYDFARLMDGATEVKCSEFGEELIKNMD	soluble
MGSDKIHHHHHHMTQNVIEMKEITKKFGDFVANDHINLTVEKGEIHALLGENGAGKSTLMNMLAGLLEPTDGQIFINGQPVTIDSPSKSSQLGIGMVHQHFMLVEAFTVAENIVLGNETTQNGVLDIKTAAKEIKELSEKYGLSVNPNAKISDISVGAQQRVEILKTLYRGADILIFDEPTAVLTPSEIKELMTIMKSLVKEGKSIILITHKLDEIRAVADKVTVIRRGKSIETVPVAGASSQQLAEMMVGRSVSFRTEKKEANPTDIILSVKDLVVEENRGGVLAVKNLSLDVRAGEIVGIAGIDGNGQSELIQAITGLRKVTSGQIVIKGKDVTKFSSRQITELSVGHVPEDRHRDGLVLDMTMAENLALQTYYKEPLSHKGILNFAKIKEYARQLMTEFDVRGAGEHVLARGFSGGNQQKAIIAREVDRDPDLLIVSQPTRGLDVGAIEYIHKRLIEERDKGKAVLVVSFELDEILNLSDRIAVIHDGKIQGIVKPDQTNKQELGILMAGGKIEKEERDV	not soluble
MSLSVSEQLFPLTIIHLNDFHARFEETNTVSTRCKPDEGERCIGGYARVVSRVKSLQREYADRNPIYLNAGDNFQGTLWYSLLRWNVTAHFLNLLPADVMTLGNHEFEHGIGGLVPFLDVIDSPVVVTNIDDREEPTLQGKYTKSVVLERGGRKIGVVGVIHHLTNTMGMTERLRFLDEVEQLRMEIGRLKEEGVQHIVVLSHCGLEIDRIIARELPDVDVVVGGHSHTFLYNGTADGFPDDPEDTYPIVVEHPEGRTTLIVQAASYAKYVGRITLYFDEEGNIREWEGNPEFLDSSVPQDEEVLAQLAPWREQVNVQANREGHHHHHH	soluble
MTEPDVAGAPASKPEPASTGAASAAQLSGYSRVLLKLGGEMFGGGQVGLDPDVVAQVARQIADVVRGGVQIAVVIGGGNFFRGAQLQQLGMERTRSDYMGMLGTVMNSLALQDFLEKEGIVTRVQTAITMGQVAEPYLPLRAVRHLEKGRVVIFGAGMGLPYFSTDTTAAQRALEIGADVVLMAKAVDGVFAEDPRVNPEAELLTAVSHREVLDRGLRVADATAFSLCMDNGMPILVFNLLTDGNIARAVRGEKIGTLVTT	soluble
MGHHHHHHSHMAKLLSDLSVDSARCKPGNNLTKSLLNIHDKQLQHDPAPAHTSIMSYLNKLETNYSFTHSEPLSTIKNEETIEPDKTYENVLSSRGPQNSNTRGMEEASAPGIISALSKQDSDEGSETMALIEDEHNLDNTIYIPFARSTPEKKSPLSKRLSPQPQIRAATTQLVSNSGLAVSGEENKLCTPVICSSSTKEAEDAPEKLSRASDMKDTQLLKKIKEAIGKIPAATKEPEEQTACHGPSGCLSNSLQVKGNTVCDGSVFTSDLMSDWSISSFSTFTSRDEQDFRNGLAALDANIARLQKSLRTGLLEK	not soluble
MSLTDINLKGGKLSIEQLNTIFETIPVEFDFIDENDIIRWSSANRHRLFKRTDADLGKHVLEVHPGHSQNHVKQVLHDMHSGDRDSISIMIKHHGQPVNIAFYALRDDQNKYLGCVEVTQDVSKQQTKGSFWRNIMQVLHKKEGHHHHHH	soluble
MINLTNLASSLARVALSDSTKPTIDRAMNVVSHIAGKVALQVNSSLLEQKGRLNERQQKGLEVILDALLGKEPVTHVETHEGGGRFNLARAAFDVASVVWERDQSMRNVMSFLGINDSKGNLLFSLGKTLADAMARPEPENGKHNSEANYAFFSSNLKLNKLMNDIADQVINEIRQQNTDRVRRPTPGPSWRPESTQQQARPQTPPSARPQANSAPPPPKAQPDAGAQRPSTERPPKTTPTGASAKVDDSAPAKPPVKQLYEHLGLSDMTADLSAVKKAYKKAALKYHPDKNAGNVAEANERFKKISNAFRILSDPELRTKYDNGVIDENG	not soluble
MSLKTKTFKMQLQFLSEQNLEINNNNQLLNQEKITYLQKIEQLKCKLEYQERMIKDSEKIREESFASAKAALFDLGKDLSKQLIEIHKMENNTTRELAEKNIETASQKFNTELERLITMVGALNKDIEQSKGTVDLIKQSLLSPIGAGLLSEITLENILKSSGLRPNLDFIMQYSLTTSDSVKLRPDAIIFLPSGNLMVIDSKASKFLVDSQDNSVHLSKTMNYHLKTLTNKDYAENILTNLNKKTQNFNNVITLMFLPTEQAVEKVIAANPEFLQKAWGCNIFPVGPAGLMNMLSFAKFQITDNRRSENYKVIIEEVRKLLSSIGTIADYSKKIGYNLQNMVTNYDKFAASFNRNVMSRVKSIQKLGIDSGNKIIPATLERYQIVSAKSEIIEVDVENQHKEGHHHHHH	not soluble
MGSDKIHHHHHHMKVICITQARMGSSRLPGKVLKIIGTRPMLEYHVRRVAKSKLINHHIIATSNQENDLPIVEYCQQNNIDYYRGNETDVLGRFYETALSVHAEPDDIIIRLTGDCPLICPQLIDDAIKLQFSGESQQYTHVSLAYFPRGFDVEVFRMRSLSEAYFKALAPAQREHVTLYLYSKPDALIVPVTLHGNPSWSHFRLCVDEQDDFLLVEQLICRLGEQWLDAGPRQICELLEGNPQLVTINAHIHQRTAH	not soluble

Reference: the DeepSol protein solubility set
